From the supplement of paper PMC9112550, “Optimization of the antimicrobial peptide Bac7 by deep mutational scanning” (BMC Biology, 2022)

Tested on: Escherichia coli TOP10
Test: shrunken log2 fold change of peptide-encoding DNA abundance (4.5 h post-induction vs induction); higher = less antimicrobial activity (less host growth inhibition)
Details: time post-induction: 4.5 h; library: site-saturation at positions 5, 18, 19, 20
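Further: peptides expressed intracellularly from a pBAD plasmid library in pooled LB shake-flask culture, induced with 0.3% L-arabinose, DNA abundance read by NGS, three biological replicates, DESeq2 with apeglm shrinkage.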

Sequence: RRIRPRPPRLPRPRPRPNGMPRP
- shrunken log2 fold change: 0.171

Sequence: RRIRLRPPRLPRPRPRPQNTPRP
- shrunken log2 fold change: -0.42

Sequence: RRIRCRPPRLPRPRPRPLGHPRP
- shrunken log2 fold change: -0.372

Sequence: RRIRERPPRLPRPRPRPFEMPRP
- shrunken log2 fold change: -0.536

Sequence: RRIRWRPPRLPRPRPRPMYMPRP
- shrunken log2 fold change: 0.0903

Sequence: RRIRERPPRLPRPRPRPPVNPRP
- shrunken log2 fold change: 0.148

Sequence: RRIRCRPPRLPRPRPRPVSHPRP
- shrunken log2 fold change: -0.0571

Sequence: RRIRRRPPRLPRPRPRPSWQPRP
- shrunken log2 fold change: 0.133

Sequence: RRIRSRPPRLPRPRPRPCMLPRP
- shrunken log2 fold change: -0.472

Sequence: RRIRHRPPRLPRPRPRPHPYPRP
- shrunken log2 fold change: -0.462

Sequence: RRIRSRPPRLPRPRPRPHHYPRP
- shrunken log2 fold change: -0.998

Sequence: RRIRDRPPRLPRPRPRPDPLPRP
- shrunken log2 fold change: 0.64

Sequence: RRIRIRPPRLPRPRPRPLLSPRP
- shrunken log2 fold change: -0.483

Sequence: RRIRRRPPRLPRPRPRPGYGPRP
- shrunken log2 fold change: 0.238

Sequence: RRIRSRPPRLPRPRPRPIMVPRP
- shrunken log2 fold change: -0.644

Sequence: RRIRCRPPRLPRPRPRPIDTPRP
- shrunken log2 fold change: -0.385

Sequence: RRIRQRPPRLPRPRPRPWLCPRP
- shrunken log2 fold change: -0.0571

Sequence: RRIRNRPPRLPRPRPRPLDCPRP
- shrunken log2 fold change: -0.00858

Sequence: RRIRFRPPRLPRPRPRPSCVPRP
- shrunken log2 fold change: -0.443

Sequence: RRIRKRPPRLPRPRPRPYTPPRP
- shrunken log2 fold change: -0.344

Sequence: RRIRRRPPRLPRPRPRPMKGPRP
- shrunken log2 fold change: 0.144

Sequence: RRIRTRPPRLPRPRPRPCTMPRP
- shrunken log2 fold change: -0.0721

Sequence: RRIRPRPPRLPRPRPRPPFTPRP
- shrunken log2 fold change: 0.185

Sequence: RRIRDRPPRLPRPRPRPHDPPRP
- shrunken log2 fold change: -0.147

Sequence: RRIRNRPPRLPRPRPRPWNRPRP
- shrunken log2 fold change: 0.0601

Sequence: RRIRIRPPRLPRPRPRPFLQPRP
- shrunken log2 fold change: -0.248

Sequence: RRIRPRPPRLPRPRPRPPMQPRP
- shrunken log2 fold change: 0.421

Sequence: RRIRVRPPRLPRPRPRPHKMPRP
- shrunken log2 fold change: -0.264

Sequence: RRIRYRPPRLPRPRPRPDPFPRP
- shrunken log2 fold change: -0.206

Sequence: RRIRRRPPRLPRPRPRPFDEPRP
- shrunken log2 fold change: 0.0762

Sequence: RRIRNRPPRLPRPRPRPCIWPRP
- shrunken log2 fold change: 0.131

Sequence: RRIRRRPPRLPRPRPRPAHAPRP
- shrunken log2 fold change: 0.407

Sequence: RRIRERPPRLPRPRPRPNLHPRP
- shrunken log2 fold change: 0.504

Sequence: RRIRERPPRLPRPRPRPERQPRP
- shrunken log2 fold change: -0.0184

Sequence: RRIRHRPPRLPRPRPRPRQVPRP
- shrunken log2 fold change: -0.108

Sequence: RRIRFRPPRLPRPRPRPWQAPRP
- shrunken log2 fold change: 0.0155

Sequence: RRIRTRPPRLPRPRPRPWFSPRP
- shrunken log2 fold change: -0.152

Sequence: RRIRHRPPRLPRPRPRPTCEPRP
- shrunken log2 fold change: 0.012

Sequence: RRIRGRPPRLPRPRPRPEGRPRP
- shrunken log2 fold change: 1.39

Sequence: RRIRSRPPRLPRPRPRPGKEPRP
- shrunken log2 fold change: -0.0291

Sequence: RRIRRRPPRLPRPRPRPQHLPRP
- shrunken log2 fold change: -0.289

Sequence: RRIRFRPPRLPRPRPRPQDVPRP
- shrunken log2 fold change: -0.193

Sequence: RRIRYRPPRLPRPRPRPSLYPRP
- shrunken log2 fold change: -1

Sequence: RRIRKRPPRLPRPRPRPTGFPRP
- shrunken log2 fold change: 0.0653

Sequence: RRIRVRPPRLPRPRPRPHEGPRP
- shrunken log2 fold change: -0.0348

Sequence: RRIRMRPPRLPRPRPRPTWKPRP
- shrunken log2 fold change: -0.0427

Sequence: RRIRRRPPRLPRPRPRPPGGPRP
- shrunken log2 fold change: 0.348

Sequence: RRIRARPPRLPRPRPRPLRVPRP
- shrunken log2 fold change: 3.15

Sequence: RRIRKRPPRLPRPRPRPESIPRP
- shrunken log2 fold change: 0.235

Sequence: RRIRCRPPRLPRPRPRPPHQPRP
- shrunken log2 fold change: 0.746

Sequence: RRIRHRPPRLPRPRPRPVIVPRP
- shrunken log2 fold change: -0.204

Sequence: RRIRWRPPRLPRPRPRPHCKPRP
- shrunken log2 fold change: -0.233

Sequence: RRIRVRPPRLPRPRPRPAWLPRP
- shrunken log2 fold change: 0.186

Sequence: RRIRGRPPRLPRPRPRPEWAPRP
- shrunken log2 fold change: 1.07

Sequence: RRIRYRPPRLPRPRPRPSCYPRP
- shrunken log2 fold change: -0.0789

Sequence: RRIRGRPPRLPRPRPRPGNLPRP
- shrunken log2 fold change: -0.639

Sequence: RRIRGRPPRLPRPRPRPYKQPRP
- shrunken log2 fold change: 0.025

Sequence: RRIRCRPPRLPRPRPRPWVQPRP
- shrunken log2 fold change: -0.391

Sequence: RRIRFRPPRLPRPRPRPMWKPRP
- shrunken log2 fold change: -0.0148

Sequence: RRIRDRPPRLPRPRPRPEWDPRP
- shrunken log2 fold change: 1.4

Sequence: RRIRLRPPRLPRPRPRPQYQPRP
- shrunken log2 fold change: -0.801

Sequence: RRIRCRPPRLPRPRPRPKWEPRP
- shrunken log2 fold change: 0.173

Sequence: RRIRQRPPRLPRPRPRPAGKPRP
- shrunken log2 fold change: 0.0246

Sequence: RRIRYRPPRLPRPRPRPRMIPRP
- shrunken log2 fold change: -0.118

Sequence: RRIRPRPPRLPRPRPRPRYQPRP
- shrunken log2 fold change: 0.0923

Sequence: RRIRDRPPRLPRPRPRPYLQPRP
- shrunken log2 fold change: -0.0926

Sequence: RRIRDRPPRLPRPRPRPHCHPRP
- shrunken log2 fold change: -0.276

Sequence: RRIRERPPRLPRPRPRPLQQPRP
- shrunken log2 fold change: 0.0643

Sequence: RRIRWRPPRLPRPRPRPFGFPRP
- shrunken log2 fold change: 0.321

Sequence: RRIRIRPPRLPRPRPRPKYYPRP
- shrunken log2 fold change: -0.632

Sequence: RRIRKRPPRLPRPRPRPLPTPRP
- shrunken log2 fold change: 0.491

Sequence: RRIRHRPPRLPRPRPRPVNAPRP
- shrunken log2 fold change: -0.0381

Sequence: RRIRQRPPRLPRPRPRPCCQPRP
- shrunken log2 fold change: -0.00534

Sequence: RRIRARPPRLPRPRPRPVDFPRP
- shrunken log2 fold change: 0.39

Sequence: RRIRNRPPRLPRPRPRPKLEPRP
- shrunken log2 fold change: 0.0965

Sequence: RRIRTRPPRLPRPRPRPVKGPRP
- shrunken log2 fold change: -0.0154

Sequence: RRIRDRPPRLPRPRPRPNGHPRP
- shrunken log2 fold change: -0.252

Sequence: RRIRGRPPRLPRPRPRPKHNPRP
- shrunken log2 fold change: 0.203

Sequence: RRIRDRPPRLPRPRPRPWPRPRP
- shrunken log2 fold change: 0.211

Sequence: RRIRGRPPRLPRPRPRPLNGPRP
- shrunken log2 fold change: 0.11

Sequence: RRIRYRPPRLPRPRPRPKWAPRP
- shrunken log2 fold change: -0.0552

Sequence: RRIRSRPPRLPRPRPRPFVWPRP
- shrunken log2 fold change: -0.0361

Sequence: RRIRMRPPRLPRPRPRPWMGPRP
- shrunken log2 fold change: -0.33

Sequence: RRIRLRPPRLPRPRPRPSIDPRP
- shrunken log2 fold change: -0.191

Sequence: RRIRVRPPRLPRPRPRPDPNPRP
- shrunken log2 fold change: -0.231

Sequence: RRIRERPPRLPRPRPRPLDSPRP
- shrunken log2 fold change: -0.344

Sequence: RRIRCRPPRLPRPRPRPDWHPRP
- shrunken log2 fold change: -0.358

Sequence: RRIRCRPPRLPRPRPRPVEIPRP
- shrunken log2 fold change: -0.296

Sequence: RRIRFRPPRLPRPRPRPRKVPRP
- shrunken log2 fold change: 0.352

Sequence: RRIRERPPRLPRPRPRPELLPRP
- shrunken log2 fold change: -0.000642

Sequence: RRIRDRPPRLPRPRPRPEKKPRP
- shrunken log2 fold change: -0.0317

Sequence: RRIRRRPPRLPRPRPRPRKQPRP
- shrunken log2 fold change: -0.0686

Sequence: RRIRIRPPRLPRPRPRPHNQPRP
- shrunken log2 fold change: -0.528

Sequence: RRIRIRPPRLPRPRPRPVNFPRP
- shrunken log2 fold change: -0.0259

Sequence: RRIRERPPRLPRPRPRPAFWPRP
- shrunken log2 fold change: 0.632

Sequence: RRIRRRPPRLPRPRPRPPTPPRP
- shrunken log2 fold change: 0.769

Sequence: RRIRVRPPRLPRPRPRPWYGPRP
- shrunken log2 fold change: -0.367

Sequence: RRIRCRPPRLPRPRPRPTQAPRP
- shrunken log2 fold change: 0.199

Sequence: RRIRHRPPRLPRPRPRPTFIPRP
- shrunken log2 fold change: -0.114

Sequence: RRIRQRPPRLPRPRPRPYFEPRP
- shrunken log2 fold change: -0.524

Sequence: RRIRWRPPRLPRPRPRPHEWPRP
- shrunken log2 fold change: 0.0987

Sequence: RRIRHRPPRLPRPRPRPSQHPRP
- shrunken log2 fold change: -0.411

Sequence: RRIRWRPPRLPRPRPRPCAVPRP
- shrunken log2 fold change: 0.198

Sequence: RRIRDRPPRLPRPRPRPKIGPRP
- shrunken log2 fold change: -0.0266

Sequence: RRIRCRPPRLPRPRPRPDRWPRP
- shrunken log2 fold change: 0.0613

Sequence: RRIRDRPPRLPRPRPRPFWAPRP
- shrunken log2 fold change: 0.141

Sequence: RRIRKRPPRLPRPRPRPIAIPRP
- shrunken log2 fold change: -0.282

Sequence: RRIRRRPPRLPRPRPRPVQRPRP
- shrunken log2 fold change: 0.254

Sequence: RRIRCRPPRLPRPRPRPCQRPRP
- shrunken log2 fold change: 0.0663

Sequence: RRIRWRPPRLPRPRPRPVRAPRP
- shrunken log2 fold change: 0.636

Sequence: RRIRGRPPRLPRPRPRPDRAPRP
- shrunken log2 fold change: 1.04

Sequence: RRIRKRPPRLPRPRPRPDVKPRP
- shrunken log2 fold change: -0.0302

Sequence: RRIRWRPPRLPRPRPRPQRGPRP
- shrunken log2 fold change: 0.115

Sequence: RRIRFRPPRLPRPRPRPEDKPRP
- shrunken log2 fold change: -0.0503

Sequence: RRIRGRPPRLPRPRPRPKCWPRP
- shrunken log2 fold change: 1.09

Sequence: RRIRCRPPRLPRPRPRPVCFPRP
- shrunken log2 fold change: -0.141

Sequence: RRIRYRPPRLPRPRPRPWHIPRP
- shrunken log2 fold change: -0.103

Sequence: RRIRNRPPRLPRPRPRPRNMPRP
- shrunken log2 fold change: -0.171

Sequence: RRIRWRPPRLPRPRPRPGYPPRP
- shrunken log2 fold change: -0.251

Sequence: RRIRQRPPRLPRPRPRPEHFPRP
- shrunken log2 fold change: 0.0746

Sequence: RRIRKRPPRLPRPRPRPVRWPRP
- shrunken log2 fold change: 0.809

Sequence: RRIRSRPPRLPRPRPRPLLFPRP
- shrunken log2 fold change: -0.129

Sequence: RRIRHRPPRLPRPRPRPYFIPRP
- shrunken log2 fold change: -1.14

Sequence: RRIRRRPPRLPRPRPRPWWLPRP
- shrunken log2 fold change: -0.00877

Sequence: RRIRRRPPRLPRPRPRPNWHPRP
- shrunken log2 fold change: 0.151

Sequence: RRIRMRPPRLPRPRPRPFYWPRP
- shrunken log2 fold change: 0.086

Sequence: RRIRMRPPRLPRPRPRPTMHPRP
- shrunken log2 fold change: 0.488

Sequence: RRIRERPPRLPRPRPRPHNHPRP
- shrunken log2 fold change: -0.734

Sequence: RRIRTRPPRLPRPRPRPQIWPRP
- shrunken log2 fold change: 0.0741

Sequence: RRIRVRPPRLPRPRPRPEEAPRP
- shrunken log2 fold change: 0.26

Sequence: RRIRLRPPRLPRPRPRPGYQPRP
- shrunken log2 fold change: -0.133

Sequence: RRIRSRPPRLPRPRPRPKDLPRP
- shrunken log2 fold change: 0.184

Sequence: RRIRVRPPRLPRPRPRPEDIPRP
- shrunken log2 fold change: -0.311

Sequence: RRIRPRPPRLPRPRPRPQRLPRP
- shrunken log2 fold change: 0.0191

Sequence: RRIRMRPPRLPRPRPRPYSGPRP
- shrunken log2 fold change: -0.00278

Sequence: RRIRNRPPRLPRPRPRPADHPRP
- shrunken log2 fold change: -0.0958

Sequence: RRIRERPPRLPRPRPRPVYPPRP
- shrunken log2 fold change: -0.335

Sequence: RRIRRRPPRLPRPRPRPHKCPRP
- shrunken log2 fold change: -0.346

Sequence: RRIRERPPRLPRPRPRPSYHPRP
- shrunken log2 fold change: -0.66

Sequence: RRIRTRPPRLPRPRPRPELIPRP
- shrunken log2 fold change: -0.0864

Sequence: RRIRHRPPRLPRPRPRPRCDPRP
- shrunken log2 fold change: 0.128

Sequence: RRIRGRPPRLPRPRPRPDTEPRP
- shrunken log2 fold change: -0.0629

Sequence: RRIRYRPPRLPRPRPRPGAVPRP
- shrunken log2 fold change: 0.929

Sequence: RRIRLRPPRLPRPRPRPHKSPRP
- shrunken log2 fold change: -0.399

Sequence: RRIRQRPPRLPRPRPRPDCDPRP
- shrunken log2 fold change: -0.0763

Sequence: RRIRQRPPRLPRPRPRPREMPRP
- shrunken log2 fold change: 0.0554

Sequence: RRIRRRPPRLPRPRPRPWWPPRP
- shrunken log2 fold change: 0.0939

Sequence: RRIRLRPPRLPRPRPRPIASPRP
- shrunken log2 fold change: -0.0599

Sequence: RRIRWRPPRLPRPRPRPIDNPRP
- shrunken log2 fold change: -0.406

Sequence: RRIRTRPPRLPRPRPRPHWFPRP
- shrunken log2 fold change: -0.132
